# Reference: US20190218304A1, “POTENTIATING THE EFFECT OF ATP RELEASE” (INNATE PHARMA, priority 2017, published 2019)
# Entries after “also recorded” stand apart in the source; their conditions may differ.
# T1: human CD39 (Homo sapiens, UniProt P49961)
# T1 sequence (P49961 1-510): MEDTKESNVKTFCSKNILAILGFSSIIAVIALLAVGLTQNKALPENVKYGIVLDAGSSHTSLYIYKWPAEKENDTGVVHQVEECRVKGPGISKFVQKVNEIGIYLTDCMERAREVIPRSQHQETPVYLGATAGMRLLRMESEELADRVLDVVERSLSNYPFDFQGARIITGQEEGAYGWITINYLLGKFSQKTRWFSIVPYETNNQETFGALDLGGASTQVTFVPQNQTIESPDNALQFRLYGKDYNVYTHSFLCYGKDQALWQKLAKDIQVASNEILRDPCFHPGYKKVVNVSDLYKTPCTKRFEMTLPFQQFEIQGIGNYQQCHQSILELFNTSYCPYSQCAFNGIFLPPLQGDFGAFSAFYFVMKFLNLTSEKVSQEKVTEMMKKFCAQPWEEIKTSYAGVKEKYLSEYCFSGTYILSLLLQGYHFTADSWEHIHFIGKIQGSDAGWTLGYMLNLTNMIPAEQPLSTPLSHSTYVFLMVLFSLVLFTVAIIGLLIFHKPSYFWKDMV
# T2: soluble recombinant human CD39 protein (Homo sapiens, UniProt P49961)
# T2 construct: made in house; host or cells: CHO cells
# T2 sequence (P49961 with tags, fused parts or gaps): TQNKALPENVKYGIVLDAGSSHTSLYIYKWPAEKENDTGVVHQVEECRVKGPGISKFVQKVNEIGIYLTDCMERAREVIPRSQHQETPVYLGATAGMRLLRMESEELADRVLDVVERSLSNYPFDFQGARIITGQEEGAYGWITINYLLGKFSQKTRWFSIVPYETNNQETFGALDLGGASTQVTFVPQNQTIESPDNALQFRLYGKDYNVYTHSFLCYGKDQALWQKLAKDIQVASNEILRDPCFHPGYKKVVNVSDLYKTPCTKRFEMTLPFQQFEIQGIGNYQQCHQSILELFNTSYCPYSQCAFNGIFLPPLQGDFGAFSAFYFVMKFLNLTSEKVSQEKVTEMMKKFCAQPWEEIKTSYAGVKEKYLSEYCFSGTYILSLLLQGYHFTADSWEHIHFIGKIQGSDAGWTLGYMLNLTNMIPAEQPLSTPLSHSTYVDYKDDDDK
# T3: CHO cells expressing human CD39 (Homo sapiens, UniProt P49961)
# T3 construct: expressed in transfected cells; host or cells: CHO cells
# T3 sequence (P49961 1-510): T1 sequence (P49961 1-510)
# T4: Human CD39-L4, also known as NTPDase5 or ENTPD5 (Homo sapiens, UniProt O75356)
# T4 sequence (O75356 25-428): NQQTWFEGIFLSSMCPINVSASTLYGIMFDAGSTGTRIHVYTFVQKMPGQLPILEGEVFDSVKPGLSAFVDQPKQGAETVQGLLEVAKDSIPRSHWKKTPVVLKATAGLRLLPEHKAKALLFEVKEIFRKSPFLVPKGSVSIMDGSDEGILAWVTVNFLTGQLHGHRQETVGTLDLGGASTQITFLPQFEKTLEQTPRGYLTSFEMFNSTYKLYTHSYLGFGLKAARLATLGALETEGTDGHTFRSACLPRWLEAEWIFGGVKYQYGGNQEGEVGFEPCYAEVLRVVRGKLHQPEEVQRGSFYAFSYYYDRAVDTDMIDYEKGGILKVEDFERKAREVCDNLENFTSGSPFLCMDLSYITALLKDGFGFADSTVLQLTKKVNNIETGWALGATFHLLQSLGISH
# B1: I-394: anti-CD39 antibody, VH SEQ ID NO: 3, VL SEQ ID NO: 4; heavy and light chains SEQ ID NOS: 37 and 38 (antibody)
# heavy: EVQLQQSGPELVKPGASVKMSCKASGYTFTDYNMHWVKQSHGRTLEWIGYIVPLNGGSTFNQKFKGRATLTVNTSSRTAYMELRSLTSEDSAAYYCARGGTRFAYWGQGTLVTVSAASTKGPSVFPLAPSSKSTSGGTAALGCLVKDYFPEPVTVSWNSGALTSGVHTFPAVLQSSGLYSLSSVVTVPSSSLGTQTYICNVNHKPSNTKVDKRVEPKSCDKTHTCPPCPAPEAEGAPSVFLFPPKPKDTLMISRTPEVTCVVVDVSHEDPEVKFNWYVDGVEVHNAKTKPREEQYNSTYRVVSVLTVLHQDWLNGKEYKCKVSNKALPSSIEKTISKAKGQPREPQVYTLPPSREEMTKNQVSLTCLVKGFYPSDIAVEWESNGQPENNYKTTPPVLDSDGSFFLYSKLTVDKSRWQQGNVFSCSVMHEALHNHYTQKSLSLSPGK
# light: DIVLTQSPASLAVSLGQRATISCRASESVDNFGVSFMYWFQQKPGQPPNLLIYGASNQGSGVPARFRGSGSGTDFSLNIHPMEADDTAMYFCQQTKEVPYTFGGGTKLEIKRTVAAPSVFIFPPSDEQLKSGTASVVCLLNNFYPREAKVQWKVDNALQSGNSQESVTEQDSKDSTYSLSSTLTLSKADYEKHKVYACEVTHQGLSSPVTKSFNRGEC
# modifications: Chimeric homo sapiens mus musculus
# Legend:
# [1] = biological target: T1, human CD39; experiment: ELISA titration on human CD39; format: binding; conditions: coated recombinant protein, OD=450
# Procedure: (§1) Wells were washed in TBS Tween 20, and further saturated 2H at RT in TBS Blocking buffer. Dose range concentration of primary antibody was incubated in TBS blocking buffer for 2 h at RT. Wells were washed in TBS Tween 20. […] Optical density was measured on Enspire™ at OD=450.
# [2] = biological target: T2, soluble recombinant human CD39 protein; experiment: Inhibition of the enzymatic activity of soluble CD39 (Cell Titer Glo); format: biochemical
# Procedure: The inhibition by antibodies of the enzymatic activity of soluble CD39 protein produced was evaluated using Cell Titer Glo™ (Promega, reference G7571) that allows assessment of ATP hydrolysis through use of a reagent that generates a luminescent signal proportional to the amount of ATP present. In this way, inhibition of the soluble-CD39-meidatd ATP hydrolysis can be assessed. Briefly, dose ranges of anti-CD39 antibodies from 100 μg/ml to 6×10^−3 μg/ml were incubated with 400 ng/ml of soluble recombinant human CD39 protein having the amino acid sequence described in the Methods section (SEQ ID NO: 39), for 1 h at 37° C. 20 μM ATP was added to the plates for 30 additional minutes at 37° C. before addition of CTG (Cell Titer Glo) reagent. Emitted light was quantified using an Enspire™ luminometer after a short incubation period of 5 min in the dark. Anti-CD39 antibody efficacy was determined by comparing emitted light in presence of antibody with ATP alone (maximal light emission) and ATP together with soluble CD39 protein (minimal light emission).
# [3] = tested on: monocyte-derived DC (moDC); experiment: Activation of monocyte-derived dendritic cells in presence of ATP; format: cell-based, human; conditions: ATP at 0.125 mM, 0.25 mM or 0.5 mM, 24 hours; I-394 shown at 10 μg/ml
# Procedure: While ATP has pro-inflammatory activity, CD39-mediated catabolism of ATP is believed to be able to impair dendritic cell (DC) activation, in turn altering a broader adaptive immune response against tumor antigen. In order to evaluate whether CD39 blockade using anti-CD39 antibodies could overcome CD39-mediated alteration of dendritic cell (DC) activation in the presence of ATP, we incubated monocyte-derived DC (moDC) with anti-CD39 antibodies in the presence of ATP.
# Briefly, human monocytes were purified from human healthy blood and differentiated into MoDC in presence of GM-CSF and IL-4 during 6 days. […] LPS (Invivogen, 10 ng/ml) was used as positive control. To assess resulting effect of ATP-mediated DC activation on CD4 T cells activation, ATP-activated DC were washed and then incubated with allogenic CD4 T cells (ratio 1 MoDC/4 T cells) for a mixed lymphocytes reaction (MLR) during 5 days. T cells activation and proliferation were analyzed through CD25 expression and Cell Trace Violet dilution by flow cytometry (FIG. 8).
# [4] = tested on: CHO cells expressing cynomolgus (macaca fascicularis) CD39; experiment: Antibody titration by flow cytometry on CHO-cyCD39; format: binding
# Procedure: (§2) Cells were incubated with various concentration of unlabeled anti-CD39 antibody from 30 μg/ml to 5×10^−4 μg/ml, for 30 minutes at 4° C. After washes, cells were incubated with Goat anti-mouse H+L labeled secondary antibody for 30 min at 4° C.
# [5] = biological target: T3, CHO cells expressing human CD39; experiment: Antibody titration by flow cytometry on CHO-huCD39; format: binding
# Procedure: as §2
# [6] = tested on: MCA205 mouse tumor cells (sarcoma); experiment: In vivo combination treatment, MCA205 tumors in human CD39 KI mice; conditions: second experimental series: oxaliplatin injected twice, one week apart, one day after I-394
# Procedure: 1×10^6 MCA205 mouse tumor cells (sarcoma) were subcutaneously engrafted in the right flank of mice genetically modified to express human CD39 (CD39KI mice). […] Tumors were measured twice a week with a caliper (L: length and w: width) and tumor volume was calculated with the formula (L×w2)/2. Mice were sacrificed when tumor volume was above 1800 mm^3 or when tumors were highly necrosed. The human CD39 KI mice were engrafted with MCA205 tumor cells at day 0.
# In a first experimental series, mice were treated at day 5 post tumor cell engraftment with either control (1 group) PBS, or oxaliplatin chemotherapy (2 groups). In parallel, one group of mice treated with oxaliplatin was injected twice a week with anti-CD39 antibody, with the anti-CD39 antibody treatment starting just one day before oxaliplatin treatment (at day 4).
# [7] = biological target: T4, Human CD39-L4, also known as NTPDase5 or ENTPD5; experiment: ELISA titration on CD39-L4; format: binding; conditions: coated recombinant protein, OD=450
# Procedure: as §1
molecule,measurement,setting,value
B1,binding to human CD39 in ELISA,[1],bound; also recorded: binds to human CD39
same,"maximum inhibition achieved, soluble CD39","[2]; 400 ng/ml soluble CD39, 20 μM ATP",74.9%
same,inhibition of ATPase activity of soluble CD39 when spiked into negative hybridoma supernatants,[2]; antibody added to hybridoma supernatants negative for sCD39 inhibition,did not restore the ability of negative supernatants to inhibit ATPase activity of CD39
same,inhibition of ATPase activity after purification from negative supernatant,[2]; antibody purified from the negative supernatant with Protein A coated beads,again able to inhibit
same,inhibition of the enzymatic (ATPase) activity of soluble CD39 protein,[2]; result in words,strong inhibition; also recorded: inhibit soluble CD39; also recorded: inhibits the enzymatic activity; also recorded: highly potent at blocking the enzymatic activity
same,moDC activation as assessed by HLA-DR or CD83 expression,[3],permitted moDC activation; also recorded: lead to moDC activation
same,binding to cells expressing cynomolgus CD39 (CHO-cyCD39),[4],bound; also recorded: binds
same,binding to cells expressing human CD39 (CHO-huCD39),[5],bound; also recorded: binds
same,effect on tumor growth / tumor volume and mice survival,[6],only marginal effect
same,binding to CD39-L4 in ELISA,[7],not to any of the human isoforms
